The target in experiment [1] is T1, recombinant human MICA extracellular domain recombinant-His protein (MICA*001 allele) (human, UniProt Q29983 24-297).
T1 construct: also called MICA*001-His; MICA-His; not shown: His tag
T1 sequence: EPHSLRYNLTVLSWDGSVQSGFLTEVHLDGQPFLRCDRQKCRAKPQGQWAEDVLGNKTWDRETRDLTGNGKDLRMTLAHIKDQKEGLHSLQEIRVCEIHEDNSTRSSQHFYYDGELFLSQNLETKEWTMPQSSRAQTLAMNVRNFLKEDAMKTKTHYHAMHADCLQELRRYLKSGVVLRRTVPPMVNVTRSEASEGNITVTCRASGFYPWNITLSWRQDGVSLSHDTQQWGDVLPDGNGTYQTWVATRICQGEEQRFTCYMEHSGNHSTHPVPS
As to the kind of experiment: SPR (Biacore T100), bivalent mean KD at pH 7.4, MICA*001-His on NTA chip, antibody injected. As for the experimental part: The binding of 6E4, 20C6 and 16A8 to either recombinant human MICA extracellular domain recombinant protein monomers or dimers (MICA*019 allele-Fc protein or MICA*001-His protein) as well as other NKG2D ligands MICB and ULBP1-2 was analyzed by Surface Plasmon Resonance (SPR) using a Biacore T100 apparatus to obtain monovalent and bivalent affinity, respectively.
Each cycle consisted of three steps. Firstly, the NTA chip was activated with NiSO₄ (500 mM). Secondly, the MICA-His protein (diluted to 10 μg/ml in running buffer HBS-P) was immobilized onto the surface via a 2 min injection at a constant flowrate of 10 μL/min. Then the antibody was injected over the immobilized antigen for 2 min at the flow rate of 40 μl/min. Subsequently, the running buffer was injected for 5 min at 40 μl/min for antibody dissociation analysis. After each cycle, the surface was regenerated by a 60s injection of 0.5M EDTA, pH 8.3 to completely strip the surface of the remaining antigen and antibody. The resulting sensorgrams were analyzed by global fitting using the appropriate model.
A general note: Surface plasmon resonance follows binding to a sensor surface in real time, without labels.

For experiment [2], the target named is T1, recombinant human MICA extracellular …. Kind of experiment: SPR (Biacore T100), monovalent affinity.

Kd data for two molecules are collected here from patent publication US20200299380A1 (published 2020).

B1: biotin-conjugated mouse antibody 6E4 (antibody, V domains shown)
VH: EVQLVESGGALVKPGGSLKLSCAASGFTFSYYAMSWVRQTPEKRLEWVATISRGGNYIYYTDSVKGRFTISRDNAKNTLYLQMTSLRSEDTAMFYCASISDYDGAWLAYWGQGTLVTV
VL: DVLMTQTPLSLPVSLGDQASISCRSSQSIIHTNGNTYLEWYLQKPGQSPKLLIYKISNRFSGVPDRFSGSGSGTDFTLKISRVEAEDLGVYYCFQGSHVPWTFGGGTKLEIK
notes: also called 6E4 (mouse)
Turning to B1, the Kd in experiment [1] was determined as 0.031 nM; in experiment [2] it was 2 nM.

B2: biotin-conjugated mouse antibody 20C6 (antibody, V domains shown)
VH: QITLKESGPGILKPSQTLSLTCSFSGFSLSTSGMGVGWIRQPSGKGLEWLAHIWWDDDKYYNPSLKSQLTISKDTSRNQVFLRITSVDTADTATYYCARRTQGYFDYWGQGTTLTVSS
VL: DIVMTQSPATLSVTPGDRVSLSCRASQSISDYLHWYQQKSHESPRLLIKYASQSISGIPSRFSGSGSGSDFTLSINSVEPEDVGVYYCQNGHSFPWTFGGGTKLEIK
notes: also called 20C6 (mouse)
On to B2, for which the Kd in experiment [1] stood at 0.33 nM; in experiment [2] it was 6.5 nM.
